Test results published in patent publication US20150273042.

Columns and labels:
[1] = target: synthetic fluorescent peptide carrying the LPXTG sorting motif of PI-1 backbone protein
[2] = target: synthetic fluorescent peptide carrying the LPXTG sorting motif of PI-1 minor ancillary protein
[3] = target: T1, backbone protein of GBS PI-2b (Spb1) expressed from a complementation vector in GBS strain 515Δ2a
T1 chain: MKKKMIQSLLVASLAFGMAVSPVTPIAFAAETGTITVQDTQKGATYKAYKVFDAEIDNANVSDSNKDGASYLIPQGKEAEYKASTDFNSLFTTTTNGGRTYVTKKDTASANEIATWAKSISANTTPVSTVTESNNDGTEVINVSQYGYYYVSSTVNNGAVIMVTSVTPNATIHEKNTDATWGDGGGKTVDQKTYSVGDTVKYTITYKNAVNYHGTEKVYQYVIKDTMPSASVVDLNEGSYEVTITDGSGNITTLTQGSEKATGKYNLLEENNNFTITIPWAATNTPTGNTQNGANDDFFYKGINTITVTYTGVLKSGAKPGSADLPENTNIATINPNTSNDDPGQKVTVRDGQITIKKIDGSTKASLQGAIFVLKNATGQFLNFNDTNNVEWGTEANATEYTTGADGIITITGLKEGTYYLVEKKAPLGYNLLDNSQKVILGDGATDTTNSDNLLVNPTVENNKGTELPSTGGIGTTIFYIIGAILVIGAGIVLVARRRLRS

[4] = target: GFP-… (EGFP from pSpeedET with … added at the C-terminus)
[5] = target: T2, backbone protein PI-1 of GBS (GBS 80)
T2 chain: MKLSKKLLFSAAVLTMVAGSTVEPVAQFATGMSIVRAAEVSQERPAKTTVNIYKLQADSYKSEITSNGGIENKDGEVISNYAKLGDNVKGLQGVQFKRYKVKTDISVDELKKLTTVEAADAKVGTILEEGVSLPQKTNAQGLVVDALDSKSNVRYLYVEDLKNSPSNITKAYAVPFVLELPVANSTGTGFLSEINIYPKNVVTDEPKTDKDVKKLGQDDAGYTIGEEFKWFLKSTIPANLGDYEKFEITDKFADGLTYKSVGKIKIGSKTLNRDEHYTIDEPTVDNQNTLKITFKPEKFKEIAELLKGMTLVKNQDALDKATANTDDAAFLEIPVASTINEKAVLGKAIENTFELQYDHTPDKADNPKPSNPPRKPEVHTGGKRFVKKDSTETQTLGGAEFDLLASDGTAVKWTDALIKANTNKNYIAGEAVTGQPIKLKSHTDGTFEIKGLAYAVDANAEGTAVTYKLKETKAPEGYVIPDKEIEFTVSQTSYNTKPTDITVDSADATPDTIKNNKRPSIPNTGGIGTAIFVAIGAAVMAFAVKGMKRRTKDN

[6] = target: pilus protein from Streptococcus pneumoniae (RrgB)
[7] = target: T3, recombinant BP-2a (strain 515) lacking the C-terminal IPQTG sorting signal, BP 30-640
T3 chain: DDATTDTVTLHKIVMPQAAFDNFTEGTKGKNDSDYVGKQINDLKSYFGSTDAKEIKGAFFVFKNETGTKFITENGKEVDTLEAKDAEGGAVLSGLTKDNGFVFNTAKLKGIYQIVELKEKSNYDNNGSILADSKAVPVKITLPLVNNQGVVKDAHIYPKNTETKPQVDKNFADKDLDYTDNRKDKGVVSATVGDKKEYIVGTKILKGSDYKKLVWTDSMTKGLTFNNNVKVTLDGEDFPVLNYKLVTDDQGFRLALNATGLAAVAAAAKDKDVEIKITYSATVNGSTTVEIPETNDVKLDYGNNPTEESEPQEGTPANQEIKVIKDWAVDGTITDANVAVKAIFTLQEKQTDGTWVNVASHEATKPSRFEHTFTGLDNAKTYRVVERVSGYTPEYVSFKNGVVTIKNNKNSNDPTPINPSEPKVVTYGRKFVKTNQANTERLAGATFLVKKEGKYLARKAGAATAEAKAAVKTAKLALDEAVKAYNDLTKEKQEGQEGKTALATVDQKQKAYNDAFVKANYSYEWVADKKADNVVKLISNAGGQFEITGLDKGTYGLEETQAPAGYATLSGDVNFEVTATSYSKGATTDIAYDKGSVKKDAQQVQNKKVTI

[8] = target: recombinant BP-2a (strain 515) with Lys189 replaced by alanine
[9] = target: recombinant ancillary protein 1 of GBS pilus 2a (AP1-2a)
[10] = target: recombinant ancillary protein 2 of GBS pilus 2a (AP2-2a)
[11] = target: T4, recombinant backbone protein of GBS pilus 2a (BP-2a, GBS59), strain 515, BP 30-649
T4 chain: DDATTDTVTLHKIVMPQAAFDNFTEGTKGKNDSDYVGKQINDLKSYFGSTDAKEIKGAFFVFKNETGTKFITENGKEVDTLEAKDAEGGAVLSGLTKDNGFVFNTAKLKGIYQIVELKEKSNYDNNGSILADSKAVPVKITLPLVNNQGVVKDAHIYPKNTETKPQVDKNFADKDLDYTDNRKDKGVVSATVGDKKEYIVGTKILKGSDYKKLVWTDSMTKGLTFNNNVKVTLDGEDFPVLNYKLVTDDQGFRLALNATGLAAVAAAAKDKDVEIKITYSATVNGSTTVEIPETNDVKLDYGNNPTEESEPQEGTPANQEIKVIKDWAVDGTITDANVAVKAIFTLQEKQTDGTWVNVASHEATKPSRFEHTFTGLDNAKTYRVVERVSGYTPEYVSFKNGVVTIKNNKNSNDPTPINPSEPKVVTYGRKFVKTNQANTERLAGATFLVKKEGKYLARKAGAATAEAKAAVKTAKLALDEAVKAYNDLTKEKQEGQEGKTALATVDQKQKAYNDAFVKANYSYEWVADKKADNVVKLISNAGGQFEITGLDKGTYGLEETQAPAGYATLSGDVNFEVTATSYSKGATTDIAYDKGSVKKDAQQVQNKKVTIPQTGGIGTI

B1: recombinant PI-2b SrtC1 (full-length, strain COH1) in fusion with a His-MBP-tag (protein)
chain: MAYPSLANYWNSFHQSRAIMDYQDRVTHMDENDYKKIINRAKEYNKQFKTSGMKWHMTSQERLDYNSQLAIDKTGNMGYISIPKINIKLPLYHGTSEKVLQTSIGHLEGSSLPIGGDSTHSILSGHRGLPSSRLFSDLDKLKVGDHWTVSILNETYTYQVDQIRTVKPDDLRDLQIVKGKDYQTLVTCTPYGVNTHRLLVRGHRVPNDNGNALVVAEAIQIEPIYIAPFIAIFLTLILLLISLEVTRRARQRKKILKQAMRKEENNDL
FRET assay, cleavage of fluorescent peptide [1]: The PI-2b SrtC1 and SrtC2 enzymes are able to cleave the fluorescent peptides | FRET assay, cleavage of fluorescent peptide [2]: The PI-2b SrtC1 and SrtC2 enzymes are able to cleave the fluorescent peptides

B2: PI-2b SrtC1 expressed from a complementation vector in GBS strain 515Δ2a (protein)
chain: MAYPSLANYWNSFHQSRAIMDYQDRVTHMDENDYKKIINRAKEYNKQFKTSGMKWHMTSQERLDYNSQLAIDKTGNMGYISIPKINIKLPLYHGTSEKVLQTSIGHLEGSSLPIGGDSTHSILSGHRGLPSSRLFSDLDKLKVGDHWTVSILNETYTYQVDQIRTVKPDDLRDLQIVKGKDYQTLVTCTPYGVNTHRLLVRGHRVPNDNGNALVVAEAIQIEPIYIAPFIAIFLTLILLLISLEVTRRARQRKKILKQAMRKEENNDL
pili polymerisation in complemented GBS 515Δ2a (western blot) [3]: transfection with BP and SrtC1 resulted in the formation of high molecular weight polymers

B3: GBS sortase C1 of PI-2a lid mutant SrtC1Y86A (protein)
chain: ESNNQTQDFERAAKKLSQKEINRRMALAQAYNDSLNNVHLEDPAEKKRIQKGIAEYARMLEVSEKIGIISVPKIGQKLPIFAGSSQEVLSKGAGHLEGTSLPIGGNSTHTVITAHSGIPDKELFSNLKKLKKGDKFYIQNIKETIAYQVDQIKVVTPDNFSDLLVVPGHDYATLLTCTPIMVNTHRLLVRGHRIPYKGPIDEKLIKDGHLNTIYRYLFYISLVIIAWLLWLIKRQRQKNRLSSVRKGIES
in vitro polymerization reaction [4]: the SrtC1Y86A mutant was able to polymerise GFP-IPQTG | in vitro polymerization (SDS-PAGE) [5]: FIG. 7 shows that mutant sortase enzymes polymerize pilus proteins from a variety of gram positive bacteria | in vitro polymerization (SDS-PAGE) [6]: FIG. 7 shows that mutant sortase enzymes polymerize pilus proteins from a variety of gram positive bacteria | in vitro polymerization (HMW polymers on SDS-PAGE) [7]: HMW polymers could not be detected | in vitro polymerization (HMW polymers on SDS-PAGE) [8]: HMW polymers could be observed | in vitro polymerization (HMW structures on SDS-PAGE) [9]: some HMW structures were formed | in vitro polymerization (HMW structures on SDS-PAGE) [10]: some HMW structures were formed | in vitro polymerization (high-molecular-weight bands on SDS-PAGE) [11]: The typical pili pattern of bands with molecular weights above 260 kDa, visible by SDS-page, could be generated when monomeric r-BP was incubated with rSrtC1Y86A

B4: wild-type GBS sortase C1 of PI-2a, recombinant SrtC1 43-292 (protein)
chain: ESNNQTQDFERAAKKLSQKEINRRMALAQAYNDSLNNVHLEDPYEKKRIQKGIAEYARMLEVSEKIGIISVPKIGQKLPIFAGSSQEVLSKGAGHLEGTSLPIGGNSTHTVITAHSGIPDKELFSNLKKLKKGDKFYIQNIKETIAYQVDQIKVVTPDNFSDLLVVPGHDYATLLTCTPIMVNTHRLLVRGHRIPYKGPIDEKLIKDGHLNTIYRYLFYISLVIIAWLLWLIKRQRQKNRLSSVRKGIES
in vitro polymerization (high-molecular-weight bands on SDS-PAGE) [11]: showed no formation of high molecular weight bands that could represent pilus polymers

B5: recombinant PI-2b SrtC2 (full-length, strain COH1) in fusion with a His-MBP-tag (protein)
chain: MIRRYSANFLAILGIILVSSGIYWGWYNINQAHQADLTSQHIVKVLDKSITHQVKGSENGELPVKKLDKTDYLGTLDIPNLKLHLPVAANYSFEQLSKTPTRYYGSYLTNNMVICAHNFPYHFDALKNVDMGTDVYFTTTTGQIYHYKISNREIIEPTAIEKVYKTATSDNDWDLSLFTCTKAGVARVLVRCQLIDVKN
FRET assay, cleavage of fluorescent peptide [1]: The PI-2b SrtC1 and SrtC2 enzymes are able to cleave the fluorescent peptides | FRET assay, cleavage of fluorescent peptide [2]: The PI-2b SrtC1 and SrtC2 enzymes are able to cleave the fluorescent peptides
